Assay results from PMC6126924, “Arabidopsis formin 2 regulates cell-to-cell trafficking by capping and stabilizing actin filaments at plasmodesmata” (eLife, 2018).

Biological target: the molecule itself
Test: SEC; Superdex 200 Increase 10/300; 100 mM Tris-HCl pH 8.5, 150 mM NaCl, 1 mM DTT, 5% glycerol; 0.4 mL/min; His-tag fusion proteins

B1: 6His-AtFH2-FH2 (domain or fragment, Arabidopsis thaliana, UniProt O22824 438-864, looked up)
chain: EKKVETMKPKLKTLHWDKVRASSSRVMVWDQIKSNSFQVNEEMIETLFKVNDPTSRTRDGVVQSVSQENRFLDPRKSHNIAILLRALNVTADEVCEALIEGNSDTLGPELLECLLKMAPTKEEEDKLKELKDDDDGSPSKIGPAEKFLKALLNIPFAFKRIDAMLYIVKFESEIEYLNRSFDTLEAATGELKNTRMFLKLLEAVLKTGNRMNIGTNRGDAHAFKLDTLLKLVDIKGADGKTTLLHFVVQEIIKFEGARVPFTPSQSHIGDNMAEQSAFQDDLELKKLGLQVVSGLSSQLINVKKAAAMDSNSLINETAEIARGIAKVKEVITELKQETGVERFLESMNSFLNKGEKEITELQSHGDNVMKMVKEVTEYFHGNSETHPFRIFAVVRDFLTILDQVCKEVGRVNERTVYGSMPLHSPSN
notes: Arabidopsis thaliana Formin 2 (AtFH2, At2g43800), FH2 domain; cloned in pET23a; Mainly a dimer by size exclusion chromatography (about 100 kDa); source: E. coli Tuner (DE3) pLysS, purified (Ni-NTA)
For B1, the “stoichiometry N” value was 2.
